# B1: BMP7 (ligand, UniProt P18075 293-431, looked up)
# chain: STGSKQRSQNRSKTPKNQEALRMANVAENSSSDQRQACKKHELYVSFRDLGWQDWIIAPEGYAAYYCEGECAFPLNSYMNATNHAIVQTLVHFINPETVPKPCCAPTQLNAISVLYFDDSSNVILKKYRNMVVRACGCH
# modifications: 125I-iodinated by a modified Chloramine-T procedure (tracer); unlabeled form used as competitor
# notes: also called unlabeled BMP7
# Target: T1, CRFR2β (CRF receptor 2 beta) (human, UniProt Q60748 35-411 (mouse entry))
# T1 construct: also called CRFR2b; CRFRIIβ
# Assay: 125I-BMP7 tracer (5x10^5 cpm) with or without unlabeled BMP7, Ni-NTA pull-down, gamma counting; CRFR2β as control receptor
# Method: In a particular example, BMPRII, ALK3 and CRFR2β were incubated with 5×10⁵ cpm ¹²⁵I-BMP7 tracer in the presence or absence of 40 nM unlabeled BMP7 as competitor. BMPRII and ALK3 are type II and type I receptors of BMP7, respectively. CRFR2β is a G-protein coupled receptor with no known affinity for BMP7 and was included as a control. Samples were prepared in triplicate in 1.7 ml eppendorf tubes in a final volume of 1 ml binding buffer (150 mM NaCl, 50 mM Tris (pH 7.5), 0.1% BSA). Binding was performed for […] at room temperature. After an initial 60 minutes of binding, 20 μl of 50% Ni—NTA resin (Qiagen) was added to each sample and allowed to bind for the balance of the […] incubation period. Complexes were precipitated by centrifugation and washed three times in 1 ml binding buffer. After the final wash, bound ¹²⁵I-BMP7 tracer was quantified in a gamma counter. BMP7 was iodinated using a modified Cloramine-T procedure (see, e.g., Lawler et al., J. Neurosci. Meth., 49:141-53, 1993).
# T1 sequence (Q60748 other isoform, or with tags, fused parts or gaps): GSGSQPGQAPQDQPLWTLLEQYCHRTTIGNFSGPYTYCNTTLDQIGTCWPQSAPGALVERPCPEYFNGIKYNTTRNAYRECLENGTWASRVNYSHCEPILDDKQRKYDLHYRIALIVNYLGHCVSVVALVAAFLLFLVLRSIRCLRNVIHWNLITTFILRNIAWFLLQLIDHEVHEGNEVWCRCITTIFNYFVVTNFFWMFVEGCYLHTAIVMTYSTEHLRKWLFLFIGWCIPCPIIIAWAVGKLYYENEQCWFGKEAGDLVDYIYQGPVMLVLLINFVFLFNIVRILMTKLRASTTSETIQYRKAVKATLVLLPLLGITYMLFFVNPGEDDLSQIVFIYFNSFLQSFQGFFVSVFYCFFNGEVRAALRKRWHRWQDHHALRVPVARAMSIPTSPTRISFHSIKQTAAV
binder,measurement,value
B1,binding result,no binding (tested: 40 nM unlabeled BMP7)
